Test results published in patent US20200010571A1 (Janssen / Centocor, published 2020).

Tests used:
cynomolgus IL-17A [1] = molecular target: T1, cynomolgus IL-17A (cynomolgus, UniProt Q16552 24-155 (human entry), limits assumed); experiment: cell-based or functional assay
T1 chain: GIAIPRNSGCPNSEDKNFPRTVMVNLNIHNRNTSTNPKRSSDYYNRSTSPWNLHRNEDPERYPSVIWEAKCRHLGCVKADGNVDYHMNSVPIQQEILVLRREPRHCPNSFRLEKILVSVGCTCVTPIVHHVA

cynomolgus IL-17A [2] = molecular target: T1, cynomolgus IL-17A; experiment: cell-based or functional assay
[3] = molecular target: T2, human IL-17A (recombinant) (human, UniProt Q16552 24-155); experiment: competition ELISA: biotinylated rhIL-17A binding to plate-coated rhIL-17RA-Fc; Experiment 2; 95% CI 0.02829-0.03326
T2 construct: Biotinylated in the IL-17RA ELISA; also called rhIL-17A
Experimental: (§1) The plates were blocked for 1 hour with ELISA block buffer (1% BSA, 5% Sucrose and 0.05% Sodium Azide in PBS) and washed three times with wash buffer (0.05% Tween-20 in PBS). […] Plates were washed three times with wash buffer, and then incubated with SA-HRP (Jackson Immunoresearch) for 20 minutes at RT. Plates were washed three times with ELISA wash buffer. Following the wash, TMB substrate or OPD (BD & Sigma respectively) was added to each well and incubated until the appropriate color change was detected. The reaction was stopped with the addition of 2N sulfuric acid. […] ICso values were determined by non-linear regression using GraphPad Prism software (GraphPad Software, Inc). The results were plotted as mean values.

[4] = molecular target: T3, recombinant human IL-17A/F heterodimer (human, UniProt Q16552 24-155; Q96PD4 31-163); experiment: cell-based or functional assay
T3 sequence (Q96PD4 31-163, one chain of several): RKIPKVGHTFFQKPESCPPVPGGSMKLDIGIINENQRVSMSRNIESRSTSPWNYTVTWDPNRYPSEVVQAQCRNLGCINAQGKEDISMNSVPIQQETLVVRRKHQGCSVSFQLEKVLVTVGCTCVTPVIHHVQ

[5] = molecular target: T2, human IL-17A (recombinant); experiment: cell-based or functional assay
[6] = molecular target: T2, human IL-17A (recombinant); experiment: competition ELISA: biotinylated rhIL-17A binding to plate-coated rhIL-17RA-Fc; Experiment 1; 95% CI 0.03924-0.04274
Experimental: as §1

[7] = molecular target: T2, human IL-17A (recombinant); experiment: competition ELISA: biotinylated rhIL-17A binding to plate-coated rhIL-17RA-Fc; Experiment 3; 95% CI 0.06727-0.07636
Experimental: as §1

[8] = molecular target: T2, human IL-17A (recombinant); experiment: cell-based or functional assay; remark: listed apart in the source
[9] = molecular target: T3, recombinant human IL-17A/F heterodimer; experiment: cell-based or functional assay; remark: listed apart in the source

B1: mAb 7206 (parental anti-IL-17A antibody, IgG1, YTE) (antibody)
heavy: QVQLLESGGGLVQPGGSLRLSCAASGFTFSSYAMSWVRQAPGKGLEWVSTISLTSGFTYYADSVKGRFTISRDNSKNTLYLQMNSLRAEDTAVYYCARQLTLDVWGQGTLVTVSSASTKGPSVFPLAPSSKSTSGGTAALGCLVKDYFPEPVTVSWNSGALTSGVHTFPAVLQSSGLYSLSSVVTVPSSSLGTQTYICNVNHKPSNTKVDKKVEPKSCDKTHTCPPCPAPELLGGPSVFLFPPKPKDTLYITREPEVTCVVVDVSHEDPEVKFNWYVDGVEVHNAKTKPREEQYNSTYRVVSVLTVLHQDWLNGKEYKCKVSNKALPAPIEKTISKAKGQPREPQVYTLPPSREEMTKNQVSLTCLVKGFYPSDIAVEWESNGQPENNYKTTPPVLDSDGSFLLYSKLTVDKSRWQQGNVFSCSVMHEALHNHYTQKSLSLSPGK
light: QSVLTQPPSVSVAPGQTARISCSGDNLGDKYANWYQQKPGQAPVLVIYDDIDRPSGIPERFSGSNSGNTATLTISGTQAEDEADYYCGSYDFFLGMIVFGGGTKLTVLGQPKAAPSVTLFPPSSEELQANKATLVCLISDFYPGAVTVAWKADSSPVKAGVETTTPSKQSNNKYAASSYLSLTPEQWKSHRSYSCQVTHEGSTVEKTVAPTECS
For B1, the “IC50 (µg/mL); Inhibition of cyno IL-17A mediated IL-6 production by NHDF; Experiment 3” value (cynomolgus IL-17A [1]) was 0.0326 µg/mL, the “IC50 (µg/mL); Inhibition of cyno IL-17A mediated GROα production by NHDF; Experiment 3” value (cynomolgus IL-17A [2]) was 0.0271 µg/mL and the IC50 [3] was 0.0307 µg/mL. The “IC50 (µg/mL); Inhibition of IL-17A/F mediated IL-6 production by NHDF; Experiment 1” value [4] was 0.344 µg/mL, the “IC50 (µg/mL); Inhibition of IL-17A/F mediated IL-6 production by NHDF; Experiment 2” value [4] was 0.269 µg/mL and the “IC50 (µg/mL); Inhibition of IL-17A/F mediated IL-6 production by NHDF; Experiment 3” value [4] was 0.545 µg/mL. For the same binder, the “IC50 (µg/mL); Inhibition of native IL-17A mediated GROα production by NHDF; Experiment 1” value [5] was 0.0198 µg/mL, the “IC50 (µg/mL); Inhibition of native IL-17A mediated GROα production by NHDF; Experiment 2” value [5] was 0.0265 µg/mL and the “IC50 (µg/mL); Inhibition of native IL-17A mediated GROα production by NHDF; Experiment 3” value [5] was 0.0215 µg/mL. The IC50 [6] was 0.041 µg/mL, the IC50 [7] was 0.0717 µg/mL and the “IC50 (µg/mL); Inhibition of native IL-17A mediated IL-6 production by NHDF; Experiment 1” value [8] was 0.0214 µg/mL. The “IC50 (µg/mL); Inhibition of native IL-17A mediated IL-6 production by NHDF; Experiment 2” value [8] was 0.0242 µg/mL, the “IC50 (µg/mL); Inhibition of native IL-17A mediated IL-6 production by NHDF; Experiment 3” value [8] was 0.0232 µg/mL and the “IC50 (µg/mL); Inhibition of IL-17A/F mediated GROα production by NHDF; Experiment 1” value [9] was 0.725 µg/mL. For the same binder, the “IC50 (µg/mL); Inhibition of IL-17A/F mediated GROα production by NHDF; Experiment 2” value [9] was 0.393 µg/mL and the “IC50 (µg/mL); Inhibition of IL-17A/F mediated GROα production by NHDF; Experiment 3” value [9] was 0.403 µg/mL.
